Experimental data published in the Immune Epitope Database (IEDB).

Assays:
HLA-A*02:06 = test: IEDB peptide-MHC binding, purified MHC/competitive/fluorescence; filed as Kd, often an IC50 or EC50 that approximates it; ≥ and ≤ were set here for values at or beyond the usual limits of such assays
HLA-A*69:01 [1] = test: as above
HLA-A*02:11 [2] = test: as above
HLA-A*02:19 [3] = test: as above; details: source organism: Human immunodeficiency virus 1
HLA-A*02:16 [4] = test: as above; details: source organism: Human immunodeficiency virus 1
HLA-A*02:03 [5] = test: as above
HLA-A*02:12 [6] = test: as above
HLA-A*02:01 [7] = test: as above
HLA-B*27:05 [8] = test: as above
HLA-A*68:02 = test: IEDB peptide-MHC binding, purified MHC/direct/fluorescence; filed as Kd, often an IC50 or EC50 that approximates it; ≥ and ≤ were set here for values at or beyond the usual limits of such assays
HLA-A*03:01 = test: as above
HLA-A*24:03 = test: as above
HLA-A*02:11 [9] = test: as above
HLA-A*02:19 [10] = test: as above
HLA-A*29:02 = test: as above
HLA-A*02:16 [11] = test: as above
HLA-A*23:01 = test: as above
HLA-A*02:03 [12] = test: as above
HLA-A*02:12 [13] = test: as above
HLA-B*40:01 = test: as above; details: source organism: Ebola virus - Eckron (Zaire, 1976)
HLA-B*57:01 = test: IEDB peptide-MHC binding, purified MHC/competitive/fluorescence; filed as Kd, often an IC50 or EC50 that approximates it; ≥ and ≤ were set here for values at or beyond the usual limits of such assays
HLA-B*46:01 = test: as above
HLA-B*15:17 = test: as above
HLA-B*18:01 = test: as above
HLA-A*26:01 = test: as above
HLA-B*39:01 = test: as above
HLA-B*15:01 [14] = test: as above
HLA-B*51:01 = test: as above
HLA-B*27:03 = test: as above
HLA-A*69:01 [15] = test: IEDB peptide-MHC binding, purified MHC/direct/fluorescence; filed as Kd, often an IC50 or EC50 that approximates it; ≥ and ≤ were set here for values at or beyond the usual limits of such assays; details: source organism: Haemophilus influenzae
HLA-B*15:01 [16] = test: as above; details: source organism: Haemophilus influenzae
HLA-B*58:01 = test: as above; details: source organism: Haemophilus influenzae
HLA-A*02:01 [17] = test: as above
HLA-B*07:02 [18] = test: as above; details: source organism: Zaire ebolavirus
HLA-B*08:01 = test: IEDB peptide-MHC binding, purified MHC/competitive/fluorescence; ≥ and ≤ were set here for values at or beyond the usual limits of such assays; details: source organism: Zaire ebolavirus
HLA-B*07:02 [19] = test: as above; details: source organism: Zaire ebolavirus
HLA-B*15:01 [20] = test: as above; details: source organism: Zaire ebolavirus
HLA-A*24:02 = test: as above; details: source organism: Zaire ebolavirus
HLA-B*27:05 [21] = test: IEDB peptide-MHC binding, purified MHC/direct/fluorescence; filed as Kd, often an IC50 or EC50 that approximates it; ≥ and ≤ were set here for values at or beyond the usual limits of such assays; details: source organism: Reston ebolavirus - Reston
HLA-A*01:01 = test: IEDB peptide-MHC binding, purified MHC/competitive/fluorescence; filed as Kd, often an IC50 or EC50 that approximates it; ≥ and ≤ were set here for values at or beyond the usual limits of such assays; details: source organism: Human immunodeficiency virus 1
HLA-A*26:02 = test: as above; details: source organism: Human immunodeficiency virus 1
HLA-A*30:01 = test: as above; details: source organism: Human immunodeficiency virus 1
HLA-A*11:01 = test: as above; details: source organism: Human immunodeficiency virus 1
[22] = source organism: Human immunodeficiency virus 1
[23] = source organism: Zaire ebolavirus
[24] = source organism: Haemophilus influenzae 3655
[25] = source organism: Reston ebolavirus
[26] = source organism: Orthohantavirus hantanense

## GLGQHIYET
HLA-A*02:06; [22]
  Kd: 0.119 µM
HLA-A*69:01 [1]; [22]
  Kd: ≥ 20 µM
HLA-A*02:11 [2]; [22]
  Kd: 0.00955 µM
HLA-A*02:19 [3]
  Kd: 0.771 µM
HLA-A*02:16 [4]
  Kd: 0.00203 µM
HLA-A*02:03 [5]; [22]
  Kd: 0.041 µM
HLA-A*02:12 [6]; [22]
  Kd: 0.0755 µM
HLA-A*02:01 [7]; [22]
  Kd: 3.68 µM

## GRAGVVPRY
HLA-B*27:05 [8]; source organism: Mycobacterium tuberculosis variant bovis BCG str. Pasteur 1173P2
  Kd: 0.23 µM

## KEGKLQCRI
HLA-A*68:02; [23]
  Kd: ≥ 20 µM
HLA-A*03:01; [23]
  Kd: ≥ 20 µM
HLA-A*24:03; [23]
  Kd: ≥ 20 µM
HLA-A*02:11 [9]; [23]
  Kd: ≥ 20 µM
HLA-A*02:19 [10]; [23]
  Kd: ≥ 20 µM
HLA-A*29:02; [23]
  Kd: ≥ 20 µM
HLA-A*02:16 [11]; [23]
  Kd: ≥ 20 µM
HLA-A*23:01; [23]
  Kd: ≥ 20 µM
HLA-A*02:03 [12]; [23]
  Kd: ≥ 20 µM
HLA-A*02:12 [13]; [23]
  Kd: ≥ 20 µM
HLA-B*40:01
  Kd: ≥ 20 µM
HLA-B*57:01; [23]
  Kd: ≥ 20 µM
HLA-B*46:01; [23]
  Kd: ≥ 20 µM
HLA-A*69:01 [1]; [23]
  Kd: ≥ 20 µM
HLA-B*15:17; [23]
  Kd: ≥ 20 µM
HLA-B*18:01; [23]
  Kd: ≥ 20 µM
HLA-A*26:01; [23]
  Kd: ≥ 20 µM
HLA-B*39:01; [23]
  Kd: ≥ 20 µM
HLA-B*15:01 [14]; [23]
  Kd: ≥ 20 µM
HLA-B*51:01; [23]
  Kd: ≥ 20 µM
HLA-B*27:03; [23]
  Kd: ≥ 20 µM
HLA-A*02:01 [7]; [23]
  Kd: ≥ 20 µM

## KRYLQAKSE
HLA-B*27:05 [8]; source organism: Escherichia coli 536
  Kd: 0.114 µM

## LMTAISQGI
HLA-A*69:01 [15]
  Kd: 1.72 µM
HLA-B*15:01 [16]
  Kd: 2 µM
HLA-B*58:01
  Kd: 0.367 µM
HLA-A*02:01 [17]; source organism: Haemophilus influenzae
  Kd: 0.0295 µM
HLA-A*02:06; [24]
  Kd: ≤ 0.0001 µM
HLA-A*02:11 [2]; [24]
  Kd: ≤ 0.0001 µM
HLA-A*02:03 [5]; [24]
  Kd: ≤ 0.0001 µM
HLA-A*02:12 [6]; [24]
  Kd: 0.00115 µM

## NRYGLPEKM
HLA-B*27:05 [8]; source organism: Bacillus anthracis str. A0488
  Kd: 0.0175 µM

## RDRFKRTSF
HLA-A*68:02; [23]
  Kd: ≥ 20 µM
HLA-A*03:01; [23]
  Kd: ≥ 20 µM
HLA-A*24:03; [23]
  Kd: ≥ 20 µM
HLA-B*07:02 [18]
  Kd: ≥ 20 µM
HLA-A*02:11 [9]; [23]
  Kd: ≥ 20 µM
HLA-A*02:19 [10]; [23]
  Kd: ≥ 20 µM
HLA-A*02:16 [11]; [23]
  Kd: ≥ 20 µM
HLA-A*23:01; [23]
  Kd: ≥ 20 µM
HLA-A*02:03 [12]; [23]
  Kd: ≥ 20 µM
HLA-A*02:12 [13]; [23]
  Kd: ≥ 20 µM
HLA-B*57:01; [23]
  Kd: ≥ 20 µM
HLA-B*46:01; [23]
  Kd: ≥ 20 µM
HLA-A*69:01 [1]; [23]
  Kd: ≥ 20 µM
HLA-B*15:17; [23]
  Kd: ≥ 20 µM
HLA-B*18:01; [23]
  Kd: ≥ 20 µM
HLA-A*26:01; [23]
  Kd: ≥ 20 µM
HLA-B*39:01; [23]
  Kd: ≥ 20 µM
HLA-B*15:01 [14]; [23]
  Kd: ≥ 20 µM
HLA-B*51:01; [23]
  Kd: ≥ 20 µM
HLA-B*27:03; [23]
  Kd: ≥ 20 µM
HLA-A*02:01 [7]; [23]
  Kd: ≥ 20 µM
HLA-B*08:01
  IC50: ≥ 114 µM
HLA-B*07:02 [19]
  IC50: ≥ 74.2 µM
HLA-B*15:01 [20]
  IC50: 36.4 µM
HLA-A*24:02
  IC50: 18.9 µM

## RRELSKEKL
HLA-A*68:02; [25]
  Kd: ≥ 20 µM
HLA-B*27:05 [21]
  Kd: ≥ 20 µM
HLA-A*03:01; [25]
  Kd: ≥ 20 µM
HLA-A*24:03; [25]
  Kd: ≥ 20 µM
HLA-A*02:11 [9]; [25]
  Kd: ≥ 20 µM
HLA-A*02:19 [10]; [25]
  Kd: ≥ 20 µM
HLA-A*29:02; [25]
  Kd: ≥ 20 µM
HLA-A*02:16 [11]; [25]
  Kd: ≥ 20 µM
HLA-A*23:01; [25]
  Kd: ≥ 20 µM
HLA-A*02:03 [12]; [25]
  Kd: ≥ 20 µM
HLA-A*02:12 [13]; [25]
  Kd: ≥ 20 µM
HLA-B*57:01; [25]
  Kd: ≥ 20 µM
HLA-B*46:01; [25]
  Kd: ≥ 20 µM
HLA-A*69:01 [1]; [25]
  Kd: ≥ 20 µM
HLA-B*15:17; [25]
  Kd: ≥ 20 µM
HLA-B*18:01; [25]
  Kd: ≥ 20 µM
HLA-A*26:01; [25]
  Kd: ≥ 20 µM
HLA-B*39:01; [25]
  Kd: ≥ 20 µM
HLA-B*15:01 [14]; [25]
  Kd: ≥ 20 µM
HLA-B*51:01; [25]
  Kd: ≥ 20 µM
HLA-B*27:03; [25]
  Kd: ≥ 20 µM
HLA-A*02:01 [7]; [25]
  Kd: ≥ 20 µM

## RSLFNTIAVLY
HLA-A*01:01
  Kd: ≥ 20 µM
HLA-A*02:06; [22]
  Kd: 0.676 µM
HLA-A*26:02
  Kd: 1.35 µM
HLA-B*15:17; [22]
  Kd: 0.0923 µM
HLA-B*18:01; [22]
  Kd: 1.49 µM
HLA-B*15:01 [14]; [22]
  Kd: 3.66 µM
HLA-A*30:01
  Kd: ≥ 20 µM
HLA-A*02:03 [5]; [22]
  Kd: 0.356 µM
HLA-A*11:01
  Kd: ≥ 20 µM

## WLIEPCKLL
HLA-A*02:11 [9]; [26]
  Kd: 0.005 µM
HLA-A*02:12 [13]; [26]
  Kd: 0.139 µM
HLA-A*02:01 [17]; [26]
  Kd: 0.0243 µM

## YRIWLEQNK
HLA-B*27:05 [8]; source organism: Mycobacterium tuberculosis C
  Kd: 0.0825 µM
